Where “and” joins values, the source holds several entries; their conditions need not be identical. Identical values can stand only once.
Columns and labels:
[1] = biological target: the molecule itself; test: negative-stain electron microscopy
cross-linking = biological target: the molecule itself; test: cross-linking

B1: Schmallenberg virus (SBV) nucleocapsid (N) protein (natural protein)
chain: MSSQFIFEDVPQRNAATFNPEVGYVAFIGKYGQQLNFGVARVFFLNQKKAKMVLHKTAQPSVDLTFGGVKFTVVNNHFPQYVSNPVPDNAITLHRMSGYLARWIADTCKASVLKLAEASAQIVMPLAEVKGCTWADGYTMYLGFAPGAEMFLDAFDFYPLVIEMHRVLKDNMDVNFMKKVLRQRYGTMTAEEWMTQKITEIKAAFNSVGQLAWAKSGFSPAARTFLQQFGINI
stoichiometry N [1]: 4 and 5 | stoichiometry N (cross-linking): 3
